In paper PMC2929978 (Science (New York, N.Y.), 2010):

How the values were obtained:
Assay in all cases: crystal structure
[1] = molecular target: fiber protein derived from HAdV-35 (fiber of Ad35F) (human adenovirus 35 (HAdV-35))
[2] = molecular target: the molecule itself
[3] = molecular target: hexon (major capsid protein) of the HAdV-5 vector Ad35F (human adenovirus 5 (HAdV-5), UniProt P04133 1-952)

Question: How did the stoichiometry N [1] turn out when “fiber protein derived from HAdV-35 (fiber of Ad35F) (natural protein)” was run?
Answer: Its stoichiometry N is 3.

B1: penton base (PB) of the HAdV-5 vector Ad35F (natural protein)
chain: MRRAAMYEEGPPPSYESVVSAAPVAAALGSPFDAPLDPPFVPPRYLRPTGGRNSIRYSELAPLFDTTRVYLVDNKSTDVASLNYQNDHSNFLTTVIQNNDYSPGEASTQTINLDDRSHWGGDLKTILHTNMPNVNEFMFTNKFKARVMVSRLPTKDNQVELKYEWVEFTLPEGNYSETMTIDLMNNAIVEHYLKVGRQNGVLESDIGVKFDTRNFRLGFDPVTGLVMPGVYTNEAFHPDIILLPGCGVDFTHSRLSNLLGIRKRQPFQEGFRITYDDLEGGNIPALLDVDAYQASLKDDTEQGGGGAGGSNSSGSGAEENSNAAAAAMQPVEDMNDHAIRGDTFATRAEEKRAEAEAAAEAAAPAAQPEVEKPQKKPVIKPLTEDSKKRSYNLISNDSTFTQYRSWYLAYNYGDPQTGIRSWTLLCTPDVTCGSEQVYWSLPDMMQDPVTFRSTRQISNFPVVGAELLPVHSKSFYNDQAVYSQLIRQFTSLTHVFNRFPENQILARPPAPTITTVSENVPALTDHGTLPLRNSIGGVQRVTITDARRRTCPYVYKALGIVSPRVLSSRTF
Question: Which “stoichiometry N” value [2] does the source give for B1 here?
Answer: The value was 5.

B2: protein IX of the HAdV-5 vector Ad35F (natural protein)
chain: MSTNSFDGSIVSSYLTTRMPPWAGVRQNVMGSSIDGRPVLPANSTTLTYETVSGTPLETAASAAASAAAATARGIVTDFAFLSPLASSAASRSSARDDKLTALLAQLDSLTRELNVVSQQLLDLRQQVSALKASSPPNAV
Question: Does B2 bind [3]?
Answer: Result: binds
